{"source": "FireProtDB", "conditions": "Capra hircus; pH 7; 25 °C; GdnHCl; CD; sodium cacodylate 50 mM; NaCl 50 mM; reversible: yes; whole UniProt chain shown", "data": [{"protein": "Alpha-lactalbumin wild type, P00712 (protein) MMSFVSLLLVGILFHATQAEQLTKCEVFQKLKDLKDYGGVSLPEWVCTAFHTSGYDTQAIVQNNDSTEYGLFQINNKIWCKDDQNPHSRNICNISCDKFLDDDLTDDIVCAKKILDKVGINYWLAHKALCSEKLDQWLCEKL", "values": [{"measurement": "denaturant m value", "result": 2.2, "unit": "kcal/mol/M"}, {"measurement": "denaturant midpoint (higher = more stable)", "result": 2.6, "unit": "M"}, {"measurement": "unfolding free energy", "result": 5.7, "unit": "kcal/mol"}]}]}
